The results in this text go back to the supplement of paper PMC12042874.

± gives the uncertainty stated by the source.

The data set can be described thus: amyloid nucleation score (Sup35N fusion, yeast selection) (log enrichment); library NNK3; higher = more nucleation; inactive = no reads after selection. The gist of the method: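 On medium lacking adenine and uracil, psi-negative yeast expressing peptides of 20 random codons fused to Sup35N were grown 7 days at 30°C after a 24-hour induction with 100 μM copper sulfate. Illumina sequencing of input and output plasmid inserts gave the reads, and sequences under 100 input reads were excluded. The nucleation score is the DiMSum log enrichment of output over input reads, centred on the mode score of non-aggregating sequences.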

Take CTRITHGGGVTSLRNTSESN: the amyloid nucleation score result was “inactive”.

Consider RATKEGKRLDML, for which the amyloid nucleation score is -0.725 ± 1.9.

Turning to LLLWSAIIYK, the amyloid nucleation score entry was “inactive”.

In the case of NNSSSMSLINKSTCCLDWSS, the amyloid nucleation score amounted to 2.02 ± 0.063.

Take PSDDYGHLVWLTICCNCLD: the amyloid nucleation score turned out to be 1.6 ± 0.079.

As for VPRVSSTQDCNRLILRKVCL, the amyloid nucleation score entry is “inactive”.

On to TCLLRQCWNNVMS, for which the amyloid nucleation score entry is “inactive”.

In the case of ECMRNTPLTQSTATTMTTGF, the amyloid nucleation score result is “inactive”.

For AVGLRRPLCMYF, the amyloid nucleation score result was “inactive”.

As to FVRVALMYFVLKLTSRYKRN, the amyloid nucleation score entry was “inactive”.

Regarding GRCVEVCLIWLTKGDQQCSY, the amyloid nucleation score entry was “inactive”.

Substance NSVIGVFQLESSRRGLWDFI registered an amyloid nucleation score of 1.52 ± 0.11.

Turning to ESGNSSAFMAVMRISGTDVV, the amyloid nucleation score entry was “inactive”.

With FFYWSWVQPEPY, the amyloid nucleation score result is “inactive”.

As for SDEYTVTFHPSTPGKVSERD, the amyloid nucleation score result was “inactive”.

Take RPSSVDRLGSRDIRG: the amyloid nucleation score was -0.413 ± 1.9.

FGCQTGWRFRFINSNNR registered an amyloid nucleation score of 1.25 ± 0.14.

Take DGHMDR: the amyloid nucleation score result was “inactive”.

For the substance CLVGPVHPMFVL, the amyloid nucleation score result is “inactive”.

Take LACRFILNAEVEICLAWKLG: the amyloid nucleation score entry was “inactive”.

For the substance AVRFNHAYISQKPQRMLL, the amyloid nucleation score result is “inactive”.

On to GYPFSRLSSVV, for which the amyloid nucleation score entry was “inactive”.

YSACSSGVPRCLDMSRATVE showed an amyloid nucleation score of -0.055 ± 1.1.

Take TYHWLNRGYRMGSLENRLLK: the amyloid nucleation score entry is “inactive”.

Consider TENISVCGYYYRMIALDMFW, for which the amyloid nucleation score result was “inactive”.

With VDRYLCNFSGGTLYGSLSQD, the amyloid nucleation score entry was “inactive”.

WNVELSNLVEIMGRCACYSS had an amyloid nucleation score of 0.406 ± 0.35.

With AKVQWAV, the amyloid nucleation score was -0.106 ± 0.43.

In turn, WGQMR had an amyloid nucleation score of 0.456 ± 0.37.

Consider FHVSCSSFSKWNHENWHNLK, for which the amyloid nucleation score came to 0.006 ± 0.56.

Turning to SILKFNQSLQSLFSNYYHLC, the amyloid nucleation score is 1.14 ± 0.097.

In turn, PRSVVMYNNFINWYKTHKYY showed an amyloid nucleation score of 1.62 ± 0.067.

In the case of GSRLSIQTFMTS, the amyloid nucleation score entry is “inactive”.

Take YTMLSVCGVYICYKVYSMCW: the amyloid nucleation score amounted to 0.527 ± 0.4.

Consider MTSIQEF, for which the amyloid nucleation score entry is “inactive”.

Regarding QWWITTYFGLIFLYVFYSID, the amyloid nucleation score result is “inactive”.

Consider DMKLPVCSKMPLFMLVIKFK, for which the amyloid nucleation score entry was “inactive”.

CIILAGYISLLRLDNDSGWV: the amyloid nucleation score entry is “inactive”.

For SCFISSMYFASWKFRISNGV, the amyloid nucleation score result is “inactive”.

Regarding KGHCQAVGLKEEKPR, the amyloid nucleation score result was “inactive”.

In the case of WYSRTDCNKTAENSCSTKFI, the amyloid nucleation score was found to be 0.611 ± 0.17.

In the case of MVVVPDQLRVTGMRSGGKSG, the amyloid nucleation score entry is “inactive”.

Regarding SLIDHYLSDLSKKS, the amyloid nucleation score entry was “inactive”.

Take RGVYNEHFCCGFSMWEPING: the amyloid nucleation score is 2.3 ± 0.067.

Consider FIEKAC, for which the amyloid nucleation score result is “inactive”.

Turning to LHQCRDKL, the amyloid nucleation score result was “inactive”.

Substance YFVTTVKVEALFQ registered an amyloid nucleation score of -0.23 ± 0.55.

Turning to NHMCSVYRWQSLERVVCKGI, the amyloid nucleation score entry was “inactive”.

Consider FLVPTLHYYLGRWQKKPMLY, for which the amyloid nucleation score entry was “inactive”.

ASASY: the amyloid nucleation score result was “inactive”.

On to KQLLGGPTVSFNVVYSVALK, for which the amyloid nucleation score was 1.98 ± 0.088.

With HKWGCGL, the amyloid nucleation score is -0.539 ± 1.5.

Consider LYSLFVMFLSVKVWFIVFM, for which the amyloid nucleation score entry is “inactive”.

Regarding DCFSKRWLHLFANYSSVSTN, the amyloid nucleation score result is “inactive”.

As to KNEAPRTGQTRPRSTGMYRI, the amyloid nucleation score result was “inactive”.
